According to the Human Domainome abundance scans (Beltran et al. 2025):
± gives the uncertainty stated by the source.

B1: SWI/SNF-related matrix-associated actin-dependent regulator of chromatin subfamily B member 1, residues 181 to 248; numbered along this chain, Q12824 (parent)
chain: SQPEVLVPIRLDMEIDGQKLRDAFTWNMNEKLMTPEMFSEILCDDLDLNPLTFVPAIASAIRQQIESY

Variants of: B1
Assay: abundance fitness (aPCA) (normalised: wild type 0, dead -1); higher = more abundant; growth selection in yeast, the domain comes from the species named
Details: Homo sapiens

Variant	abundance fitness
L42G	-0.909 ± 0.1
L42R	-0.211 ± 0.045
L42H	-0.636 ± 0.12
L42N	-0.549 ± 0.11
L42K	-0.106 ± 0.072
L42S	-0.69 ± 0.14
L42W	-0.883 ± 0.34
L42C	-0.846 ± 0.2
L42M	0.117 ± 0.064
L42A	-0.721 ± 0.1
L42E	-0.978 ± 0.11
D22T	0.28 ± 0.077
D22L	0.001 ± 0.12
D22G	-0.418 ± 0.28
D22Q	0.052 ± 0.24
D22S	-0.21 ± 0.25
D22H	0.385 ± 0.15
D22R	0.284 ± 0.15
L46S	-0.694 ± 0.1
L46A	-0.125 ± 0.051
L46Y	-0.038 ± 0.099
E30G	-0.617 ± 0.32
P3L	0.003 ± 0.064
P3I	-0.245 ± 0.35

Variant	abundance fitness
P3N	0.214 ± 0.098
P3M	0.006 ± 0.085
P3C	-0.297 ± 0.07
P3Q	0.178 ± 0.061
P3T	0.063 ± 0.067
L32K	0.176 ± 0.058
L32D	0.181 ± 0.05
L32T	0.134 ± 0.055
L32A	0.056 ± 0.036
L32W	-0.113 ± 0.061
L32H	0.146 ± 0.053
L11V	-0.624 ± 0.24
L11F	-0.215 ± 0.18
A23W	-0.144 ± 0.039
A23Q	0.09 ± 0.09
A23E	0.221 ± 0.076
A23G	-0.291 ± 0.038
A23K	0.102 ± 0.083
A23Y	-0.147 ± 0.11
A23V	0.116 ± 0.054
K19A	-0.32 ± 0.17
K19W	-0.7 ± 0.5
V5R	-0.205 ± 0.053
V5E	-0.103 ± 0.15

Variant	abundance fitness
V5D	0.045 ± 0.095
V5Y	-0.096 ± 0.14
V5W	-0.312 ± 0.37
I61D	-0.827 ± 0.29
I61S	-1.06 ± 0.17
I61R	-0.878 ± 0.12
F24K	-0.941 ± 0.16
F24E	-0.763 ± 0.15
F24H	-0.991 ± 0.29
F24C	-0.702 ± 0.15
F24Q	-1.06 ± 0.24
F24T	-0.746 ± 0.15
D16I	-0.861 ± 0.22
D16A	-0.161 ± 0.035
D16V	-1.02 ± 0.14
D16G	-0.027 ± 0.04
D16T	-0.801 ± 0.16
D16F	-0.928 ± 0.31
P50F	-0.285 ± 0.14
P50Q	-0.508 ± 0.15
P50K	0.138 ± 0.053
P50G	-0.77 ± 0.047
P50S	-0.389 ± 0.046
I57F	-0.957 ± 0.15

Variant	abundance fitness
I57T	-0.855 ± 0.14
I57S	-0.802 ± 0.096
I57M	-0.417 ± 0.068
I57R	-0.912 ± 0.11
I57G	-0.781 ± 0.1
I57E	-0.749 ± 0.21
I57A	-0.781 ± 0.13
I57N	-0.542 ± 0.13
P8Q	-0.072 ± 0.043
P8G	-0.875 ± 0.13
P8S	-0.405 ± 0.042
P8I	-0.523 ± 0.1
N49Y	-0.666 ± 0.11
N49W	-0.783 ± 0.13
N49L	-0.924 ± 0.079
N49E	-0.292 ± 0.053
N49C	-0.356 ± 0.075
N49Q	-0.458 ± 0.055
N49F	-0.923 ± 0.12
L20N	-0.788 ± 0.45
L20A	-0.671 ± 0.23
L20I	-0.013 ± 0.14
L20C	-0.319 ± 0.067
L20P	-0.622 ± 0.29

Variant	abundance fitness
L20V	-0.01 ± 0.076
L20R	-0.501 ± 0.1
Q18T	-0.347 ± 0.11
Q18S	-0.425 ± 0.099
Q18V	0.107 ± 0.083
Q18R	-0.276 ± 0.13
I15R	-0.722 ± 0.12
I15C	-0.702 ± 0.19
I15S	-0.934 ± 0.47
I15Y	0.116 ± 0.15
I15F	-0.282 ± 0.19
T25K	-0.125 ± 0.066
T25F	0.311 ± 0.21
T25C	-0.08 ± 0.063
T25S	-0.173 ± 0.061
T25A	-0.172 ± 0.051
T25M	0.092 ± 0.051
T25Y	-0.326 ± 0.18
T25G	-0.544 ± 0.049
T25R	-0.451 ± 0.045
L48A	-0.857 ± 0.1
L48P	-0.873 ± 0.18
L48C	-0.374 ± 0.079
L48W	-0.888 ± 0.18

Variant	abundance fitness
K31V	-0.146 ± 0.061
Q64V	-0.941 ± 0.1
Q64H	-0.741 ± 0.12
Q64W	-0.618 ± 0.097
Q64C	-0.863 ± 0.12
Q64I	-0.898 ± 0.11
Q64A	-0.354 ± 0.083
Q64R	-0.709 ± 0.061
Q64K	-0.97 ± 0.25
A60P	-0.974 ± 0.17
A60T	-0.081 ± 0.043
A60R	-0.285 ± 0.05
A60C	-0.068 ± 0.082
A60V	-0.286 ± 0.047
A60H	-0.311 ± 0.066
A60G	-0.528 ± 0.078
A60S	0.076 ± 0.03
A60N	-0.28 ± 0.092
A60L	-0.72 ± 0.082
I65Q	-0.852 ± 0.22
I65G	-1.05 ± 0.23
I65V	-0.232 ± 0.11
I65L	-0.069 ± 0.12
I65R	-0.543 ± 0.14

Variant	abundance fitness
I65T	-0.141 ± 0.11
I65M	-0.477 ± 0.13
E40S	-0.114 ± 0.045
E40Y	-0.33 ± 0.082
E40M	-0.149 ± 0.073
E40V	-0.215 ± 0.041
E40P	-0.794 ± 0.14
E40W	-0.511 ± 0.06
E40T	-0.12 ± 0.045
E40G	-0.347 ± 0.036
E40H	-0.236 ± 0.065
F53L	-0.813 ± 0.34
W26T	-0.854 ± 0.26
W26C	-0.673 ± 0.42
W26E	-0.628 ± 0.33
W26Q	-0.879 ± 0.29
C43L	-0.808 ± 0.083
C43T	-0.971 ± 0.18
C43W	-0.497 ± 0.097
C43V	-0.249 ± 0.035
C43A	-0.467 ± 0.099
C43E	-1.02 ± 0.35
C43Y	-0.662 ± 0.1
